Assay results: PMC3123307, “Identification of the Allosteric Regulatory Site of Insulysin” (PLoS ONE, 2011)
Substitutions are numbered along the chain they refer to. In names and notes the source's numbering stands. Each block holds one molecule with its values, some of them ahead of it.

Experiments:
[1] = target: Native rat insulin degrading enzyme (rIDE, insulysin), wild type, residues 42-1019 (rat) (UniProt P35559)
[2] = target: the molecule itself; test: crystal structure; wild type rIDE and rIDE-E111F, no substrate peptide added; enzyme at 8 mg/ml in 50 mM Tris 7.4, 1 mM DTT, 100 mM NaCl; sitting drop, 100 mM sodium citrate pH 6.5, 100 mM ammonium acetate, 20% PEG 4000, 20 or 22°C; space group C2, one molecule per asymmetric unit

enzyme activity: activation by bradykinin of hydrolysis of 10 µM Abz-…-EDDnp [1]: 4 fold
Molecule: bradykinin (from UniProt P01042 381-389) (peptide)

B1: Native rat insulin degrading enzyme (rIDE, insulysin), wild type, residues 42-1019 (enzyme, UniProt P35559 42-1019, looked up)
chain: MNNPAIQRIEDHIVKSPEDKREYRGLELANGIKVLLISDPTTDKSSAALDVHIGSLSDPPNIPGLSHFCEHMLFLGTKKYPKENEYSQFLSEHAGSSNAFTSGEHTNYYFDVSHEHLEGALDRFAQFFLCPLFDASCKDREVNAVDSEHEKNVMNDAWRLFQLEKATGNPKHPFSKFGTGNKYTLETRPNQEGIDVREELLKFHSTYYSSNLMAICVLGRESLDDLTNLVVKLFSEVENKNVPLPEFPEHPFQEEHLKQLYKIVPIKDIRNLYVTFPIPDLQQYYKSNPGHYLGHLIGHEGPGSLLSELKSKGWVNTLVGGQKEGARGFMFFIINVDLTEEGLLHVEDIILHMFQYIQKLRAEGPQEWVFQECKDLNAVAFRFKDKERPRGYTSKIAGKLHYYPLNGVLTAEYLLEEFRPDLIDMVLDKLRPENVRVAIVSKSFEGKTDRTEQWYGTQYKQEAIPEDVIQKWQNADLNGKFKLPTKNEFIPTNFEILALEKDATPYPALIKDTAMSKLWFKQDDKFFLPKACLNFEFFSPFAYVDPLHCNMAYLYLELLKDSLNEYAYAAELAGLSYDLQNTIYGMYLSVKGYNDKQPILLKKITEKMATFEIDKKRFEIIKEAYMRSLNNFRAEQPHQHAMYYLRLLMTEVAWTKDELKEALDDVTLPRLKAFIPQLLSRLHIEALLHGNITKQAALGVMQMVEDTLIEHAHTKPLLPSQLVRYREVQLPDRGWFVYQRRNEVHNNCGIEIYYQTDMQSTSENMFLELFCQIISEPCFNTLRTKEQLGYIVFSGPRRANGIQGLRFIIQSEKPPHYLESRVEAFLITMEKAIEDMTEEAFQKHIQALAIRRLDKPKKLSAECAKYWGEIISQQYNYDRDNIEVAYLKTLSKDDIIKFYKEMLAVDAPRRHKVSVHVLAREMDSCPVVGEFPSQNDINLSEAPPLPQPEVIHNMTEFKRGLPLFPLVKPHINFMAAKL
notes: Insulin-degrading enzyme (insulysin, EC 3.4.24.56), rat; begins at methionine 42 and extends through the native C-terminal residue leucine 1019 (the same paragraph also prints 'residues 42-1016'); In the crystal there is one molecule per asymmetric unit, and the dimer is formed by crystal symmetry; Expressed from pFastBac HTb; The model contains residues 42-963 and 980-1011; also called wild type …
binding result [2]: binds

B2: rat insulin degrading enzyme E111F mutant (rIDE-E111F), residues 42-1019 (enzyme, UniProt P35559 42-1019, looked up)
chain: B1 chain with E70F
notes: Insulin-degrading enzyme (insulysin), rat; begins at methionine 42 and extends through leucine 1019; catalytically compromised E111F mutant; No zinc ion in the crystal structure; The model contains residues 42-965 and 978-1011; also called E111F-rIDE; E111F IDE mutant; not shown: His6, N-terminal, cleaved
binding result [2]: binds
